3 sequences from the supplement of paper PMC5998384 can be followed below.

The subject of data set [1] is HeLa Kyoto. Kind of data set: thermal stability score vs G1/S (z-score of summed log2 fold changes over temperatures); higher = more thermally stable than in G1/S.
Data set [2] concerns HeLa Kyoto. In words: melting temperature (median over replicates), in situ; higher = more thermally stable.
The subject of data set [3] is HeLa Kyoto. Kind of data set: solubility in G1/S (NP-40 vs SDS abundance) (log2 ratio); higher = more soluble. The conditions noted are these: cell cycle stage: G1/S.
Data set [4] relates to HeLa Kyoto. Kind of data set: solubility change mitosis vs G1/S (difference of NP-40 vs SDS log2 ratios) (log2 ratio difference); higher = more soluble in mitosis.
Setting [5] is: cell cycle stage: early G1 (4.5 h after nocodazole release).
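Throughout, for melting temperature (median over replicates), in situ: HeLa Kyoto cells synchronized by double thymidine or nocodazole block, proteins quantified by TMT10plex mass spectrometry, three independent biological replicates.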
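Throughout, for solubility change mitosis vs G1/S (difference of NP-40 vs SDS log2 ratios): synchronized HeLa Kyoto cells (double thymidine block for G1/S, nocodazole release for mitosis), protein amounts in NP-40 versus SDS lysates quantified by mass spectrometry, three biological replicates.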
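Throughout, for solubility in G1/S (NP-40 vs SDS abundance): HeLa Kyoto cells arrested at G1/S by double thymidine block, proteins quantified by TMT10plex mass spectrometry in mild NP-40 versus SDS extracts, three biological replicates.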
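Throughout, for thermal stability score vs G1/S (z-score of summed log2 fold changes over temperatures): synchronized HeLa Kyoto cells, proteins quantified by TMT10plex mass spectrometry, three biological replicates, mitosis taken 0.5 h after nocodazole release, G1/S directly after double thymidine block.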

With “MADLDSPPKLSGVQQPSEGVGGGRCSEISAELIRSLTELQELEAVYERLCGEEKVVERELDALLEQQNTIESKMVTLHRMGPNLQLIEGDAKQLAGMITFTCNLAENVSSKVRQLDLAKNRLYQAIQRADDILDLKFCMDGVQTALRSEDYEQAAAHTHRYLCLDKSVIELSRQGKEGSMIDANLKLLQEAEQRLKAIVAEKFAIATKEGDLPQVERFFKIFPLLGLHEEGLRKFSEYLCKQVASKAEENLLMVLGTDMSDRRAAVIFADTLTLLFEGIARIVETHQPIVETYYGPGRLYTLIKYLQVECDRQVEKVVDKFIKQRDYHQQFRHVQNNLMRNSTTEKIEPRELDPILTEVTLMNARSELYLRFLKKRISSDFEVGDSMASEEVKQEHQKCLDKLLNNCLLSCTMQELIGLYVTMEEYFMRETVNKAVALDTYEKGQLTSSMVDDVFYIVKKCIGRALSSSSIDCLCAMINLATTELESDFRDVLCNKLRMGFPATTFQDIQRGVTSAVNIMHSSLQQGKFDTKGIESTDEAKMSFLVTLNNVEVCSENISTLKKTLESDCTKLFSQGIGGEQAQAKFDSCLSDLAAVSNKFRDLLQEGLTELNSTAIKPQVQPWINSFFSVSHNIEEEEFNDYEANDPWVQQFILNLEQQMAEFKASLSPVIYDSLTGLMTSLVAVELEKVVLKSTFNRLGGLQFDKELRSLIAYLTTVTTWTIRDKFARLSQMATILNLERVTEILDYWGPNSGPLTWRLTPAEVRQVLALRIDFRSEDIKRLRL [COG4]”, the thermal stability score in the data set with HeLa Kyoto [1] (setting [5]) was 0.91; in the data set on HeLa Kyoto [1] (cell cycle stage: mitosis) it was 1.79. For the same sequence, the melting temperature in the data set with HeLa Kyoto [2] (cell cycle stage: G1/S) was 48.7 °C; with HeLa Kyoto [2] (cell cycle stage: mitosis), 49.6 °C. In the data set on HeLa Kyoto [3], the “solubility in G1/S (log2)” value is -0.0589. In addition, in the data set on HeLa Kyoto [4], the “solubility change mitosis (log2)” value is -0.175.

With “MADLEAVLADVSYLMAMEKSKATPAARASKKILLPEPSIRSVMQKYLEDRGEVTFEKIFSQKLGYLLFRDFCLNHLEEARPLVEFYEEIKKYEKLETEEERVARSREIFDSYIMKELLACSHPFSKSATEHVQGHLGKKQVPPDLFQPYIEEICQNLRGDVFQKFIESDKFTRFCQWKNVELNIHLTMNDFSVHRIIGRGGFGEVYGCRKADTGKMYAMKCLDKKRIKMKQGETLALNERIMLSLVSTGDCPFIVCMSYAFHTPDKLSFILDLMNGGDLHYHLSQHGVFSEADMRFYAAEIILGLEHMHNRFVVYRDLKPANILLDEHGHVRISDLGLACDFSKKKPHASVGTHGYMAPEVLQKGVAYDSSADWFSLGCMLFKLLRGHSPFRQHKTKDKHEIDRMTLTMAVELPDSFSPELRSLLEGLLQRDVNRRLGCLGRGAQEVKESPFFRSLDWQMVFLQKYPPPLIPPRGEVNAADAFDIGSFDEEDTKGIKLLDSDQELYRNFPLTISERWQQEVAETVFDTINAETDRLEARKKAKNKQLGHEEDYALGKDCIMHGYMSKMGNPFLTQWQRRYFYLFPNRLEWRGEGEAPQSLLTMEEIQSVEETQIKERKCLLLKIRGGKQFILQCDSDPELVQWKKELRDAYREAQQLVQRVPKMKNKPRSPVVELSKVPLVQRGSANGL [ADRBK1]”, the thermal stability score in the data set with HeLa Kyoto [1] (setting [5]) was determined as 1.35; in the data set on HeLa Kyoto [1] (cell cycle stage: mitosis), 0.436. The values for the melting temperature in the data set on HeLa Kyoto [2] (cell cycle stage: G1/S) and in the data set on HeLa Kyoto [2] (cell cycle stage: mitosis) were 51.6 °C and 51.4 °C, respectively. The “solubility in G1/S (log2)” value in the data set on HeLa Kyoto [3] is -0.107. Moreover, in the data set with HeLa Kyoto [4], the “solubility change mitosis (log2)” value was -0.0655.

Regarding “MADLSLLQEDLQEDADGFGVDDYSSESDVIIIPSALDFVSQDEMLTPLGRLDKYAASENIFNRQMVARSLLDTLREVCDDERDCIAVLERISRLADDSEPTVRAELMEQVPHIALFCQENRPSIPYAFSKFLLPIVVRYLADQNNQVRKTSQAALLALLEQELIERFDVETKVCPVLIELTAPDSNDDVKTEAVAIMCKMAPMVGKDITERLILPRFCEMCCDCRMFHVRKVCAANFGDICSVVGQQATEEMLLPRFFQLCSDNVWGVRKACAECFMAVSCATCQEIRRTKLSALFINLISDPSRWVRQAAFQSLGPFISTFANPSSSGQYFKEESKSSEEMSVENKNRTRDQEAPEDVQVRPEDTPSDLSVSNSSVILENTMEDHAAEASGKPLGEISVPLDSSLLCTLSSESHQEAASNENDKKPGNYKSMLRPEVGTTSQDSALLDQELYNSFHFWRTPLPEIDLDIELEQNSGGKPSPEGPEEESEGPVPSSPNITMATRKELEEMIENLEPHIDDPDVKAQVEVLSAALRASSLDAHEETISIEKRSDLQDELDINELPNCKINQEDSVPLISDAVENMDSTLHYIHSDSDLSNNSSFSPDEERRTKVQDVVPQALLDQYLSMTDPSRAQTVDTEIAKHCAYSLPGVALTLGRQNWHCLRETYETLASDMQWKVRRTLAFSIHELAVILGDQLTAADLVPIFNGFLKDLDEVRIGVLKHLHDFLKLLHIDKRREYLYQLQEFLVTDNSRNWRFRAELAEQLILLLELYSPRDVYDYLRPIALNLCADKVSSVRWISYKLVSEMVKKLHAATPPTFGVDLINELVENFGRCPKWSGRQAFVFVCQTVIEDDCLPMDQFAVHLMPHLLTLANDRVPNVRVLLAKTLRQTLLEKDYFLASASCHQEAVEQTIMALQMDRDSDVKYFASIHPASTKISEDAMSTASSTY [PPP4R1]”, the thermal stability score in the data set with HeLa Kyoto [1] (setting [5]) was -0.471; with HeLa Kyoto [1] (cell cycle stage: mitosis) it was -0.62. Further, the melting temperature in the data set with HeLa Kyoto [2] (cell cycle stage: G1/S) was 51.6 °C; with HeLa Kyoto [2] (cell cycle stage: mitosis) it was 50.8 °C. Further, the “solubility in G1/S (log2)” value in the data set on HeLa Kyoto [3] was -0.0857. Moreover, the “solubility change mitosis (log2)” value in the data set with HeLa Kyoto [4] was -0.155.
